In US20240166765A1 (ICONIC THERAPEUTICS, published 2024):
Where two headings read alike, the source gives them in different places.

Key:
[1] = target: T1, human Tissue Factor (hTF), endogenously expressed on human TF-positive cells (human, UniProt P13726 33-295); test: flow cytometry competition on A431 cells, 100 nM unlabelled antibody, competitor 20 nM 25A-Alexa488
T1 construct: also called CD142

[2] = target: T1, human Tissue Factor (hTF), endogenously …; test: flow cytometry competition on A431 cells, 100 nM unlabelled antibody, competitor 20 nM 43Ea-Alexa488
[3] = target: T1, human Tissue Factor (hTF), endogenously …; test: cell-based or functional assay
[4] = target: T2, pig TF ECD-His (pig TF-His) protein (pig (Sus scrofa)); test: Biacore, antibody captured by anti-human IgG on CM5 chip, pig TF-His as analyte
T2 construct: Extracellular domain with a C-terminal TG-His6 tag, used as analyte in Biacore; also called pTF
T2 chain: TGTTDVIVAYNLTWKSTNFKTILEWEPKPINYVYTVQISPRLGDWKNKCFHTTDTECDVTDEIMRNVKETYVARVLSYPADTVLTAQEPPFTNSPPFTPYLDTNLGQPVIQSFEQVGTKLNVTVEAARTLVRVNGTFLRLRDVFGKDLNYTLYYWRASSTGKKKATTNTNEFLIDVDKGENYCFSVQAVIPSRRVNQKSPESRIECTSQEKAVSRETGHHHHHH

rabbit TF-His [5] = target: T3, rabbit TF-His (rabbit (Oryctolagus cuniculus), UniProt P24055 33-250); test: SPR (Biacore), antibody captured by anti-human IgG on CM5 chip, rabbit TF-His in solution
T3 construct: also called rabbit TF ECD-His
T3 sequence (P24055 other isoform, or with tags, fused parts or gaps): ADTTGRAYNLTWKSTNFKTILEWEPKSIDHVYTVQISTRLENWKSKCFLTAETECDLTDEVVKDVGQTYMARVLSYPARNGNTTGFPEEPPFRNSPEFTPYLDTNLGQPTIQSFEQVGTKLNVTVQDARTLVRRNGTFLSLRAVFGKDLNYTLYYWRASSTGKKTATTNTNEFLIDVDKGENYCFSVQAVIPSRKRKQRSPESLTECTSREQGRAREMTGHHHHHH

pig TF-His [6] = target: T4, pig TF-His (pig (Sus scrofa)); test: SPR (Biacore), antibody captured by anti-human IgG on CM5 chip, pig TF-His in solution
T4 construct: also called pig TF ECD-His; pTF
T4 chain: T2 chain

cynomolgus TF ECD-His6 = target: T5, cynomolgus TF ECD-His6 (cynomolgus monkey (Macaca fascicularis)); test: BLI (ForteBio Octet)
T5 construct: made in Expi293 cells; also called TF-His; cTF
T5 chain: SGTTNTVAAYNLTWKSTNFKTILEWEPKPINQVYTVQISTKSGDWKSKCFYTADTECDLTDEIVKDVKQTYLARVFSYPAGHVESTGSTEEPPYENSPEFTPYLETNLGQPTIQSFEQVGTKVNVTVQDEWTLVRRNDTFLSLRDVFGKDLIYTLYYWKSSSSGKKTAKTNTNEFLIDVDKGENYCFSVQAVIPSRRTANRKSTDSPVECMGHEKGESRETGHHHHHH

human TF ECD-His6 = target: T6, human TF ECD-His6 (human, UniProt P13726 33-251); test: BLI (ForteBio Octet)
T6 construct: made in Expi293 cells; the entry holds the ECD with the C-terminal TG-His6; also called TF-His; hTF

rabbit TF-His [7] = target: T7, rabbit TF-His (rabbit (Oryctolagus cuniculus), UniProt P24055 33-250); test: SPR (Biacore), antibody captured by anti-human IgG
T7 construct: also called rabbit TF ECD-His
T7 sequence (P24055 other isoform, or with tags, fused parts or gaps): as the sequence (P24055 other isoform, or with tags, fused parts or gaps) above

pig TF-His [8] = target: T8, pig TF-His (pig (Sus scrofa)); test: SPR (Biacore), antibody captured by anti-human IgG
T8 construct: also called pig TF ECD-His; pTF
T8 chain: T2 chain

rTF (rat TF) [9] = target: T9, rTF (rat TF) (rat, UniProt P42533 29-252); test: live cell staining, flow cytometry
T9 construct: Expressed on the surface of transfected HEK293 cells

hTF_N171H_T197K = target: T10, hTF_N171H_T197K (human, UniProt P13726 33-251); test: live cell staining, flow cytometry
T10 construct: on HEK293 cells
T10 chain: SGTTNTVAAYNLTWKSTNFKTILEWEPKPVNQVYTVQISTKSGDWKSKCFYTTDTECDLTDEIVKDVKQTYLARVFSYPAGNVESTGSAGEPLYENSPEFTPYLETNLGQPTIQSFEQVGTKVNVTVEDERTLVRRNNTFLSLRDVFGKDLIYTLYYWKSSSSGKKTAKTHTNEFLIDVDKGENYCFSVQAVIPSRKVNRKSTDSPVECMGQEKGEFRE

hTF = target: T11, hTF (human, UniProt P13726 33-251); test: live cell staining, flow cytometry
T11 construct: also called human TF; human Tissue Factor

r141-194_h = target: T12, r141-194_h (rat/human chimera, UniProt P42533 29-252); test: live cell staining, flow cytometry
T12 construct: on HEK293 cells

rTF (rat TF) [10] = target: T9, rTF (rat TF); test: live cell staining, flow cytometry; remark: listed apart in the source
h1-77_r = target: T13, h1-77_r (human/rat chimera); test: live cell staining, flow cytometry
T13 construct: Human TF with ECD residues 1-77 replaced by the rat segment; on HEK293 cells

h1-107_r = target: T14, h1-107_r (human/rat chimera); test: live cell staining, flow cytometry
T14 construct: on HEK293 cells
T14 chain: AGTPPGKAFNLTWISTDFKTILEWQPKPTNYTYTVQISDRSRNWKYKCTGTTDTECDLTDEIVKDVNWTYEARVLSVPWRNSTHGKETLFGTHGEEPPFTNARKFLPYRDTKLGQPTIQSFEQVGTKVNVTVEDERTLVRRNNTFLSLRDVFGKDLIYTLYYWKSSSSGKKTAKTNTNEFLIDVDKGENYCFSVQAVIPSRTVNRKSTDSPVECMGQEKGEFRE

h78-107_r.v2 = target: T15, h78-107_r.v2 (human/rat chimera); test: live cell staining, flow cytometry
T15 construct: on HEK293 cells

h159-219_r = target: T16, h159-219_r (human/rat chimera); test: live cell staining, flow cytometry
T16 construct: on HEK293 cells

B1: anti-TF antibody 29D (antibody, human IgG1, V domains shown)
VH: QVQLVESGGGVVQPGRSLRLSCAASGFTFHSRGMHWVRQAPGKGLEWVAVITYDGINKYYADSVEGRFTISRDNSKNTLYLQMNSLRAEDTAVYYCARDGVYYGVYDYWGQGTLVTVSS
VL: not shown
notes: Human IgG1
% 25A binding [1]: 70%
% 43Ea binding [2]: 64%
% GM-CSF, 2.56 nM antibody, MDA-MB-231 cells + FVIIa [3]: 38%
% GM-CSF, 6.4 nM antibody, MDA-MB-231 cells + FVIIa [3]: 15%
% GM-CSF, 16 nM antibody, MDA-MB-231 cells + FVIIa [3]: 7%
% GM-CSF, 40 nM antibody, MDA-MB-231 cells + FVIIa [3]: 6%
% GM-CSF, 100 nM antibody, MDA-MB-231 cells + FVIIa [3]: 5%
binding result [4]: no binding

B2: 29D (antibody, human IgG1, V domains shown)
VH: B1 VH
VL: not shown
notes: Human IgG1; also called antibody 29D
binding result (rabbit TF-His [5]): no binding
binding result (pig TF-His [6]): no binding

B3: 29D (antibody, human IgG1, V domains shown)
VH: B1 VH
VL: not shown
notes: human IgG1
Kd (cynomolgus TF ECD-His6): 12 nM
Kd (human TF ECD-His6): 3.3 nM
binding result (rabbit TF-His [7]): no binding (tested: TF-His titration from 100 nM)
binding result (pig TF-His [8]): no binding (tested: TF-His titration from 100 nM)

B4: 1G (antibody, human IgG1, V domains shown)
VH: EVQLLESGGGLVQPGGSLRLSCAASGFTFSSYAMAWVRQAPGKGLEWVSAISGSGGLTYYADSVKGRFTISRDNSKNTLYLQMNSLRAEDTAVYYCAKAPYGYYMDVWGKGTTVTVSS
VL: not shown
notes: human IgG1
Kd (cynomolgus TF ECD-His6): 2.7 nM
Kd (human TF ECD-His6): 2.2 nM
binding result (rabbit TF-His [7]): no binding (tested: TF-His titration from 100 nM)
binding result (pig TF-His [8]): no binding (tested: TF-His titration from 100 nM)

B5: 1G (antibody, human IgG1, V domains shown)
VH: B4 VH
VL: not shown
notes: Human IgG1; also called antibody 1G
binding result (rabbit TF-His [5]): no binding
binding result (pig TF-His [6]): no binding

B6: anti-TF antibody 1G (antibody, human IgG1, V domains shown)
VH: B4 VH
VL: not shown
notes: Human IgG1
% 25A binding [1]: 75%
% 43Ea binding [2]: 58%
% GM-CSF, 2.56 nM antibody, MDA-MB-231 cells + FVIIa [3]: 34%
% GM-CSF, 6.4 nM antibody, MDA-MB-231 cells + FVIIa [3]: 9%
% GM-CSF, 16 nM antibody, MDA-MB-231 cells + FVIIa [3]: 7%
% GM-CSF, 40 nM antibody, MDA-MB-231 cells + FVIIa [3]: 7%
% GM-CSF, 100 nM antibody, MDA-MB-231 cells + FVIIa [3]: 7%
binding result [4]: no binding

B7: 54E (antibody, human IgG1, V domains shown)
VH: QVQLVQSGAEVKKPGASVKVSCKASGYTFANYYMHWVRQAPGQGLEWMGIINPSGGITVYAQKFQGRVTMTRDTSTSTVYMELSSLRSEDTAVYYCARGGSKVAALAFDIWGQGTMVTVSS
VL: DIQMTQSPSSLSASVGDRVTITCQASQDISNSLNWYQQKPGKAPKLLIYDASNLETGVPSRFSGSRSGTDFTFTISSLQPEDIATYYCQQYNFHPLTFGGGTKVEIK
notes: Human IgG1
Percent antibody binding to TF construct relative to hTF (rTF (rat TF) [9]): 0%
Percent antibody binding to TF construct relative to hTF (hTF_N171H_T197K): 89%
Percent antibody binding to TF construct relative to hTF (hTF): 100%
Percent antibody binding to TF construct relative to hTF (r141-194_h): 0%
Percent antibody binding to TF construct relative to hTF (rTF (rat TF) [10]): 0%
Percent antibody binding to TF construct relative to hTF (h1-77_r): 0%
Percent antibody binding to TF construct relative to hTF (h1-107_r): 0%
Percent antibody binding to TF construct relative to hTF (h78-107_r.v2): 62%
Percent antibody binding to TF construct relative to hTF (h159-219_r): 142%
